For test [1], the target named is T1, Flag tagged recombinant DLL3 (Adipogen) (Homo sapiens (Human), UniProt Q9NYJ7 27-492).
T1 construct: Bought reagent; also called Flag-DLL3
T1 sequence: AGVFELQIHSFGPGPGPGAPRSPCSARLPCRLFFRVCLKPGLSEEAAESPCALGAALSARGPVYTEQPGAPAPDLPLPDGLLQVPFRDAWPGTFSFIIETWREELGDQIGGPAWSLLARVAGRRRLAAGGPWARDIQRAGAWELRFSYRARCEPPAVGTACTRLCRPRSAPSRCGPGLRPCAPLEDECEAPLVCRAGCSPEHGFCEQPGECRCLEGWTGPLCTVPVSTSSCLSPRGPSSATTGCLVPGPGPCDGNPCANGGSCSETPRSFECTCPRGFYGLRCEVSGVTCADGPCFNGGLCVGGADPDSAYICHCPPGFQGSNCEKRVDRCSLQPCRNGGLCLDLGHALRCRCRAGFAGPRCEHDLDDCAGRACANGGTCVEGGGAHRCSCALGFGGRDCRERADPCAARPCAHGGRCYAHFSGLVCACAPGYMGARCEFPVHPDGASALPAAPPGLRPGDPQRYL
Kind of test: flow cytometry, percent of T cells that recognise recombinant DLL3, Donor 116. On the technique in general: In flow cytometry, cells or beads pass a laser one at a time.
Method: (§1) To determine the percentage of T cells that were successfully transduced with DLL3 CAR, T cells were first incubated with 1 ug/ml Flag tagged recombinant DLL3 (Adipogen) in PBS+1% BSA for 20 minutes at 4 C.

For test [2], the target named is T1, Flag tagged recombinant DLL3 (Adipogen). The experiment in a line: flow cytometry, percent of T cells that recognise recombinant DLL3, Donor 117.
Method: as §1
Test [3] has the same target. The experiment in a line: flow cytometry, primary T cells with the CAR, 1 ug/ml Flag tagged recombinant DLL3, PE anti-Flag.
Method: as §1
For test [4] the target is unchanged. Kind of test: flow cytometry, percent of T cells that recognise recombinant DLL3, Donor 503.
Method: as §1
The target is the same in test [5]. The experiment in a line: flow cytometry, percent of T cells that recognise recombinant DLL3, Donor 419.
Method: as §1

B1: 2D3 (other)
CAR: QVQLQESGPGLVKPSETLSLTCTVSDNSISNYYWSWIRQPPGKGLEWIAYIYYSGTTNYNPSLKSRVTISLDTSKNQFSLKLSSVTAADTAVYYCARLFNWGFAFDIWGQGTMVTVSSGGGGSGGGGSGGGGSGGGGSEIVMTQSPATLSVSPGERATLSCRASQSVSSNLAWYQQKPGQAPRLLIYGASTRATGIPARFSGSGSGTEFTLTISSLQSEDFAVYYCQQYNNWPLTFGGGTKVEIKTTTPAPRPPTPAPTIASQPLSLRPEACRPAAGGAVHTRGLDFACDIYIWAPLAGTCGVLLLSLVITKRGRKKLLYIFKQPFMRPVQTTQEEDGCSCRFPEEEEGGCELRVKFSRSADAPAYQQGQNQLYNELNLGRREEYDVLDKRRGRDPEMGGKPRRKNPQEGLYNELQKDKMAEAYSEIGMKGERRRGKGHDGLYQGLSTATKDTYDALHMQALPPR
notes: also called anti-DLL3 CAR with 2D3 scFv, on primary T cells
With B1, the values for the Transduction efficiency in test [1] and in test [2] were 46.1% and 47.4%, respectively. In test [3], the “Rec-DLL3 gate, percent of live CD3+ cells” value (shortened to “Rec-DLL3 gate, percent”) was 46.1%.

B2: 2A6.C5 (other)
CAR: QVQLQESGPGLVKPSETLSLTCTVSNVSISSYYWSWIRQPPGKGLEWIGYIYYSGTTNYNPSLKSRVTMSVDTSKNQFSLKLSSVTAADTAVYFCARLSNWGFAFDIWGQGTMVTFSSGGGGSGGGGSGGGGSGGGGSEIVLTQSPGTLSLSPGERATLSCRASQTISSSYLAWYQQKPGQAPRLLIYGASSRATGIPDRFSGSGSGTEFTLTISRLEPEDFAVYYCQQYGWSPITFGQGTRLEIKTTTPAPRPPTPAPTIASQPLSLRPEACRPAAGGAVHTRGLDFACDIYIWAPLAGTCGVLLLSLVITKRGRKKLLYIFKQPFMRPVQTTQEEDGCSCRFPEEEEGGCELRVKFSRSADAPAYQQGQNQLYNELNLGRREEYDVLDKRRGRDPEMGGKPRRKNPQEGLYNELQKDKMAEAYSEIGMKGERRRGKGHDGLYQGLSTATKDTYDALHMQALPPR
notes: also called anti-DLL3 CAR with 2A6.C5 scFv, on primary T cells
In the case of B2, the Transduction efficiency in test [1] was determined as 37.2%; in test [2], 37.7%. Moreover, the “Rec-DLL3 gate, percent” value in test [3] was 37.2%.

B3: 11A8 (other)
CAR: QVQLQQSGPGLVKPSQTLSLTCAISGDSVSSNSATWNWIRQSPSTGLEWLARTYYRSKWYNDYEVSVKSQITINPDTSKNQFSLQLNSVTPEDTAVYYCARGGIVGAPDAFDIWGQGTMVTVSSGGGGSGGGGSGGGGSGGGGSQSVLTQPPSASGTPGQGVTISCSGSSSNIGSNPVNWYQQLPGTAPKLLIYSNNQRPSGVPDRFSDSKSGTSASLAISGLQSEDEADYYCSAWDDWLNGYVFGTGTKVTVLTTTPAPRPPTPAPTIASQPLSLRPEACRPAAGGAVHTRGLDFACDIYIWAPLAGTCGVLLLSLVITKRGRKKLLYIFKQPFMRPVQTTQEEDGCSCRFPEEEEGGCELRVKFSRSADAPAYQQGQNQLYNELNLGRREEYDVLDKRRGRDPEMGGKPRRKNPQEGLYNELQKDKMAEAYSEIGMKGERRRGKGHDGLYQGLSTATKDTYDALHMQALPPR
notes: also called anti-DLL3 CAR with 11A8 scFv, on primary T cells
Take B3: the figures for the Transduction efficiency in test [4] and in test [5] were 45.1% and 33.4%, respectively.

B4: 7F9 (other)
CAR: EVQLVESGGGLVQPGGSLRLSCAASGFTFSSHDMHWVRQATGKGLEWVSAIGIAGDTYYSGSVKGRFTISRENAKNSLYLQMNSLRAGDTAVYYCARANWGEGAFDIWGQGTMVTVSSGGGGSGGGGSGGGGSGGGGSDIQMTQSPSSLSASVGDRVTITCRASQGISDYLAWYQQKPGKIPKLLIYAASTLQSGVPSRFSGSGSGTDFTLTISSLQPEDVATYYCQKYNSVPLTFGGGTKVEIKTTTPAPRPPTPAPTIASQPLSLRPEACRPAAGGAVHTRGLDFACDIYIWAPLAGTCGVLLLSLVITKRGRKKLLYIFKQPFMRPVQTTQEEDGCSCRFPEEEEGGCELRVKFSRSADAPAYQQGQNQLYNELNLGRREEYDVLDKRRGRDPEMGGKPRRKNPQEGLYNELQKDKMAEAYSEIGMKGERRRGKGHDGLYQGLSTATKDTYDALHMQALPPR
notes: also called anti-DLL3 CAR with 7F9 scFv, on primary T cells
Turning to B4, the figures for the Transduction efficiency in test [1] and in test [2] were 42.2% and 37.4%, respectively. Moreover, the “Rec-DLL3 gate, percent” value in test [3] was determined as 42.2%.

B5: 3B1 (other)
CAR: QVQLQQSGPGLVKPSQTLSLTCAISGDSVSSNTTAWKWSRQSPSKGLEWLGWTYYRSKWYYDYTVSVKSRITINPDTSKNQFSLQLNSVTPEDTAVYYCARWIFHDAFDIWGQGTMVTVSSGGGGSGGGGSGGGGSGGGGSQSALTQPPSASGTPGQRVTISCSGSSSNIGSNTVNWYQQLPGTAPKLLIYTNNQRPSGVPDRFSGSKSGTSASLAISGLQSEDEADYFCSTWDDSLNGPVFGGGTKLTVLTTTPAPRPPTPAPTIASQPLSLRPEACRPAAGGAVHTRGLDFACDIYIWAPLAGTCGVLLLSLVITKRGRKKLLYIFKQPFMRPVQTTQEEDGCSCRFPEEEEGGCELRVKFSRSADAPAYQQGQNQLYNELNLGRREEYDVLDKRRGRDPEMGGKPRRKNPQEGLYNELQKDKMAEAYSEIGMKGERRRGKGHDGLYQGLSTATKDTYDALHMQALPPR
notes: also called anti-DLL3 CAR with 3B1 scFv, on primary T cells
In the case of B5, the Transduction efficiency in test [4] is 7.95%; in test [5], 6.15%.

B6: 5A2 (other)
CAR: QVQLQESGPGLMKPSETLSLTCTVSGGSISSSYWSCIRQPPGKGLEWIGYIYYSGTTNYNPSLKSRVTLSLDTSKNQFSLRLTSVTAADTAVYYCARVAPTGFWFDYWGQGTLVTVSSGGGGSGGGGSGGGGSGGGGSEIVLTQSPGTLSLSPGERATLSCRASQRVSSRYLAWYQQKPGQAPRLLIYGASSRATGIPDRFSGSGSGTDFTLTISRLEPEEFAVYYCQQYGTSPLTFGGGTKVEIKTTTPAPRPPTPAPTIASQPLSLRPEACRPAAGGAVHTRGLDFACDIYIWAPLAGTCGVLLLSLVITKRGRKKLLYIFKQPFMRPVQTTQEEDGCSCRFPEEEEGGCELRVKFSRSADAPAYQQGQNQLYNELNLGRREEYDVLDKRRGRDPEMGGKPRRKNPQEGLYNELQKDKMAEAYSEIGMKGERRRGKGHDGLYQGLSTATKDTYDALHMQALPPR
notes: also called anti-DLL3 CAR with 5A2 scFv, on primary T cells
On to B6, for which the Transduction efficiency was 49.1% in test [1] and 47.4% in test [2]. Besides, in test [3], the “Rec-DLL3 gate, percent” value stood at 49.1%.

B7: 6D8 (other)
CAR: QITLKESGPTLVKPTQTLTLTCTFSGFSLSTRGVGVGWIRQPPGKALEWLALIYWNDDKRYSPSLQTRLTITKDTPKNQVVLTMTNMDPVDTATYYCARSNWGNWYFALWGRGTLVTVSSGGGGSGGGGSGGGGSGGGGSEIVLTQSPATLSLSPGERATLSCRASQSVSSYLAWYQQKPGQAPRLLIYDAFYRATGIPARFSGSGSGTDFTLTISSLEPEDFAVYYCQHRSNWPITFGQGTRLEIKTTTPAPRPPTPAPTIASQPLSLRPEACRPAAGGAVHTRGLDFACDIYIWAPLAGTCGVLLLSLVITKRGRKKLLYIFKQPFMRPVQTTQEEDGCSCRFPEEEEGGCELRVKFSRSADAPAYQQGQNQLYNELNLGRREEYDVLDKRRGRDPEMGGKPRRKNPQEGLYNELQKDKMAEAYSEIGMKGERRRGKGHDGLYQGLSTATKDTYDALHMQALPPR
notes: also called anti-DLL3 CAR with 6D8 scFv, on primary T cells
With B7, the Transduction efficiency in test [1] is 32.4%; in test [2], 34.8%. Further, the “Rec-DLL3 gate, percent” value in test [3] stood at 32.4%.

B8: 11E4 (other)
CAR: QVQLQESGPGLVKPSETLSLTCTVSGGSISSYYWSWIRQSPGKGLEWIGYVYYSDITNYNPSLKSRVTISVDTSKNQFSLNLNSVTAADTAFYFCARIGVAGFYFDYWGQGTLVTVSSGGGGSGGGGSGGGGSGGGGSEIVLTQSPDTLSLSPGERATLSCRASQSVSRRYLAWYQQKPGQAPRLLIYGASSRATGIPDRFSGSGSGTDFTLTISRLEPEDFEVYYCQQYGTSPITFGQGTRLEIKTTTPAPRPPTPAPTIASQPLSLRPEACRPAAGGAVHTRGLDFACDIYIWAPLAGTCGVLLLSLVITKRGRKKLLYIFKQPFMRPVQTTQEEDGCSCRFPEEEEGGCELRVKFSRSADAPAYQQGQNQLYNELNLGRREEYDVLDKRRGRDPEMGGKPRRKNPQEGLYNELQKDKMAEAYSEIGMKGERRRGKGHDGLYQGLSTATKDTYDALHMQALPPR
notes: also called anti-DLL3 CAR with 11E4 scFv, on primary T cells
With B8, the Transduction efficiency stood at 62.8% in test [4] and 54.8% in test [5].

The values are drawn from patent publication US20230287120A1 (ALLOGENE THERAPEUTICS, published 2023).
